Source: patent US9688743B2, “Optical biosensors” (Carnegie Mellon University, priority 2007, dated 2017)

What was measured:
[1] = Cell surface complementation, flow cytometry of TO1-2p fluorescence; type: cell-based; details: 1 μM TO1-2P, induced JAR200 yeast, emission at 530
Description: In the following experiments three classes of yeast cells were generated by molecular biology methods known in the art. One class of yeast expressed only the heavy chain of the scFv on the surface. A second class expressed only the light chain of the scFv on its surface. The third class expressed both the heavy and light chains on the surface. When the fluorescent reporter TO1 was added independently to solutions containing the three classes of yeast cells, only the third class that expressed both heavy and light chains at a high surface density produced a fluorescence increase, as shown below. Specifically, two vectors, pPNL6 and pPNL6URA3 were prepared, where the TRP1 gene of pPNL6 was replaced with the URA3 gene of S. cerevisiae. This approach allowed selection for both plasmids in a single cell. Fragments carrying scFv1, scFv1 HO (heavy only chain), or scFv1 LO (light only chain) were cloned into each of the two vectors. […]
In the first approach, flow cytometry was used to assay cellular fluorescence of the three classes of yeast in the presence and absence of TO 1. The population of induced cells was analyzed by measuring fluorescence emitted at 685 from a signal caused by protein labeled by anti-C-myc Alexa 647. […] For cells that expressed full length fragments the TO1-2p fluorescence was observed as emission at 530.

[2] = Cell surface complementation, fluorescence spectrometer on cell suspensions; type: cell-based, yeast; details: for Fluorescence: 1 μM TO1-2P, excitation 506 nm, emission 610 nm, corrected for buffer+dye and no-dye samples
Description: In the following experiments three classes of yeast cells were generated by molecular biology methods known in the art. One class of yeast expressed only the heavy chain of the scFv on the surface. A second class expressed only the light chain of the scFv on its surface. The third class expressed both the heavy and light chains on the surface. When the fluorescent reporter TO1 was added independently to solutions containing the three classes of yeast cells, only the third class that expressed both heavy and light chains at a high surface density produced a fluorescence increase, as shown below. Specifically, two vectors, pPNL6 and pPNL6URA3 were prepared, where the TRP1 gene of pPNL6 was replaced with the URA3 gene of S. cerevisiae. This approach allowed selection for both plasmids in a single cell. Fragments carrying scFv1, scFv1 HO (heavy only chain), or scFv1 LO (light only chain) were cloned into each of the two vectors.
JAR200 yeast cells were transformed with each single plasmid as well as both scFv1 HO (PNL6)+scFv1 LO (PNL6URA3) or both scFv1 HO (PNL6URA3)+scFv1 LO (PNL6). Analysis by FACS and TECAN followed induction of the cells. In both cases, 1 μM TO1-2P was used.
In the second approach, a fluorescence spectrometer was used to quantify the fluorescence from suspensions of cells. The fluorescence excitation wavelength was 506 nm and the emission wavelength was 610 nm. Values presented below are corrected from raw data by subtracting out the values for (buffer+dye) and induced (no dye) samples. They were then corrected for the per cent of the population that was induced, as determined by the flow cytometry analysis.

[3] = Spectral characterization of yeast surface displayed FBPs (TO1-2p); type: physicochemical; details: cell surface; for excitation maximum: free dye absorbance 504 nm
Description: 10^6 cells in 200 μl yeast buffer were assayed with 100-1000 nM MG-2p or TO1-2p. Spectra were corrected by subtraction of fluorescence of control cells not expressing scFvs.

[4] = Quantum yield and absorbance of FBP/TO1-2p complex; type: physicochemical
Description: (§1) FIG. 15 provides graphs illustrating absorbance of fluorogens and FBP/fluorogen complexes. Shown are samples used in quantum yield determinations. The absorbance of FBP/fluorogen complexes is obtained on a dual beam PerkinElmer Lambda 45 spectrophotometer using an equal concentration of FBP without fluorogen as the reference.
(§2) Quantum yields were determined by comparing integrated spectra of FBP/fluorogen complexes with those of reference dyes. Corrected emission spectra were taken at concentrations of FBP/fluorogen complex and reference dyes giving similar absorbances at the excitation wavelength, and the intensity integral computed. Provisional quantum yields were calculated by the relation:
(§3) [formula] where (phi is the quantum yield, I is the integrated intensity, A is the absorbance, η is the refractive index, and R designates the reference dye. Provisional quantum yields were adjusted to 1:1 complexation by using the solution KD of the complex to quantify the proportional occupancy at these concentrations (using Graphpad Prism 4.0 and the above ligand depletion algorithm).
A cyanic dye, Cy5.18 in PBS and Di-S—C2-(5) in MeOH were used as reference fluorophores for the determination of HL4-MG/MG-2p and L5-MG/MG-2p quantum yields. […] These differences in absorbance magnitude underrepresent actual differences because of incomplete complexation at these concentrations. […]

[5] = Fluorogenic enhancement of purified FBP (TO1-2p); type: biochemical; details: direct measurement
Description: (§4) Fluorogenic enhancement of HL4-MG, L5-MG and HL1.0.1-TO1 was measured in 96 well microplates on a Tecan Safire2 reader by comparison of the fluorescence of 500 nM free fluorogen with the fluorescence of a mixture of 500 nM fluorogen and 2 μM respective FBP. After a 1 hour incubation to allow complex formation, fluorescence was measured at the excitation and emission maxima of the fluorogen/FBP complexes. Fluorescence of yeast PBS buffer was subtracted from all samples. Fluorescence readings were stable for at least 16 hours.
(§5) Extended gain settings were used to increase numerical accuracy. For HL4-MG and L5MG, the differences in fluorescence between complexes and free dye exceeded the extended gain range of the instrument, so intermediate concentrations of Cy5 were also measured to allow interpolation between the extreme values. Two independent experiments, each with triplicate measurements, were carried out for each of the 3 FBPS; standard deviations for averaged values of FBPS, free fluorogen or PBS were less than 5%. The fold-enhancement values for HL4-MG and L5-MG were respectively multiplied by 1.35 and 1.20 to correct for partial complexation.

[6] = Fluorogen binding affinity to soluble FBPs (TO1-2p); details: soluble FBP, in words
Description: (§6) Binding affinity to soluble scFvs was determined by monitoring fluorogenic signal under conditions of ligand depletion using a homogenous 96 well microplate assay similar to above. 1 nM HL1.0.1-TO1, 10 nM L5-MG and 100 nM HL4-MG were each assayed with a 0.1 to 1000 nM range of fluorogen. Fluorescence of each FBP+dye sample was corrected by subtracting the fluorescence of a dye only sample. KD values were determined by non-linear regression using Graphpad Prism 4.0 and a ligand depletion algorithm. Y═(X+KD+R−√{square root over ((−X−KD−R)^2−4*X*R)})÷2 where X is the concentration of fluorogen, and R is the concentration of FBP/fluorogencomplex at the observed or extrapolated plateau at maximum fluorescence. Determination of Quantum Yields

[7] = Fluorogen binding affinity to yeast surface displayed FBPs (TO1-2p)
Description: Cell surface KD values were determined on Prism Graphpad Prism 4.0 software by non-linear regression analysis using a one-site binding algorithm for saturation binding: Y═Bmax*X═(KD+X) where X is the concentration of fluorogen. Determination of Fluorogen Binding Affinity to Soluble FBPs

[8] = Quantum yield and absorbance of FBP/MG-2p complex; type: physicochemical
Description: as §1, §2, §3
A cyanic dye, Cy5.18 in PBS and Di-S—C2-(5) in MeOH were used as reference fluorophores for the determination of HL4-MG/MG-2p and L5-MG/MG-2p quantum yields. 2 μM scFv and 440 nM MG-2p were employed; emission spectra of respective complexes were taken in duplicate. […] These differences in absorbance magnitude underrepresent actual differences because of incomplete complexation at these concentrations. HL4MG/MG-2p and L5-MG/MG-2p quantum yields were respectively multiplied by 1.35 and 1.20 to correct for incomplete complexation. Fluorescein in 0.1 N NaOH and Rhodamine-6-G in MeOH were used as reference fluorophores for the determination of the quantum yield of HL1.0.1-TO1/TO12p. At the employed concentrations of 2 μM scFv and 520 nM TO1-2p, virtually complete complexation is expected, and no correction was used. Only slight changes in absorbance magnitude were noted.

[9] = Fluorogen binding affinity to soluble FBPs (MG-2p); details: soluble versus yeast surface displayed FBP
Description: as §6

[10] = Fluorogenic enhancement of purified FBP (MG-2p); type: biochemical; details: HL4-MG/MG-2p complex
Description: as §4, §5

B1: HO PNL6: scFv1 heavy chain only, vector pPNL6, displayed on yeast (antibody, V domains shown)
VH: QVQLVESEAEVKKPGSSVKVSCKASGGTFSSYAISWVRQAPGQGLEWMGGIIPIFGTANYAQKFQGRVTITADESTSTAYMELSSLRSEDTAVYYCVLLDTTMVTGYYFDYWGQGTLVTVSS
Question: For B1, which “MEAN 530 SIGNAL” value [1] is on record?
Answer: 88

Question: What about the Fluorescence [2] of the same molecule?
Answer: 135

Question: What about the “F/ (% Pop IND)” value ([2]; fluorescence corrected for per cent of population induced) of the same molecule?
Answer: 160

B2: HO PNL6URA3: scFv1 heavy chain only, vector pPNL6URA3, displayed on yeast (antibody, V domains shown)
VH: QVQLVESEAEVKKPGSSVKVSCKASGGTFSSYAISWVRQAPGQGLEWMGGIIPIFGTANYAQKFQGRVTITADESTSTAYMELSSLRSEDTAVYYCVLLDTTMVTGYYFDYWGQGTLVTVSS
Question: For B2, which “MEAN 530 SIGNAL” value [1] is on record?
Answer: 82

Question: What about the Fluorescence [2] of the same molecule?
Answer: −605

B3: HL1.0.1-TO1: affinity matured fluorogen binding scFv, SEQ ID NO: 7 (protein)
scFv: QVQLVESEAEVKKPGSSVKVSCKASGGTFSSYAISWVRQAPGQGLEWMGGTIPIFGTADYAQEFQGRVTITTDESTSTAYMELSGLRSEDTAVYYCVLLGTTMVTGHYFDYWGQGTLVTVSSGILGSGGGGSGGGGSGGGGSNFMLTQPPSASGTPGQSVTISCSGSGSNIGNNKVNWYQQLPGTAPKLLIYSNNQRPSGVPDRFSGSKSGTSASLAISGLQSEDEADYYCAAWDDGLSGYVFGTGTKLTVL
modifications: scFv sequence
Question: With B3 as the molecule, how does the emission maxima [3] read?
Answer: 530 nm

Question: And the excitation maximum [3]?
Answer: 509 nm

Question: What about the extinction coefficient [4] of the same molecule?
Answer: 60,000 M^−1 cm^−1

Question: And the quantum yield [4]?
Answer: 0.47

Question: What about the “fluorescence increase of TO1-2p upon binding” value [5] of the same molecule?
Answer: about 2,600 fold

Question: What about the KD in solution [6] of the same molecule?
Answer: very similar to that observed on the cell surface

Question: What about the Kd ([7]; yeast cell surface displayed FBP, fluorogen TO1-2p) of the same molecule?
Answer: ~3 nM

B4: HL4-MG: malachite green binding scFv, SEQ ID NO: 11 (protein)
scFv: QVQLVESEGGLVQPGGSLRLSCAASGFTFSSYEMNWVRQAPGKGLEWVSRIDGDGSSTNYADSVKGRFTISRDNAKSTLYLQMNSLRAEDTAVYYCTRARYFGSVSPYGMDVWGQGTTVTVSSGILGSGGGGSGGGGSGGGGSDIRVTQSPSSVSASVGDRVTISCRASQGIATWLGWYQQKPGKPPQLLIYSASTLQTGVPSRFSGSGSGTDFTLTISSLQPEDVATYYCQEGSTFPLTFGGGTKVDIKSGILEQKLISEEDL
modifications: scFv sequence, (GILEQKLISEEDL at end of sequence is derived from a vector)
Question: What does the source list for B4?
Answer: absorbance of FBP/fluorogen relative to free MG-2p [8]: more than 1.4 fold; extinction coefficient [8]: about 105,000 M^−1 cm^−1; quantum yield [8]: 0.17; reduced affinity for MG-2p in solution as compared to surface display [9]: 185 fold; fluorescence enhancement as compared to free fluorogen [10]: about 18,000 fold

B5: L5-MG: malachite green binding light chain only FBP, SEQ ID NO: 13 (antibody)
VL: SASTGSFDSWGQGTLVTVSSGILGSGGGGSGGGGSGGGGSQAVVTQEPSVTVSPGGTVILTCGSSTGAVTSGHYANWFQQKPGQAPRALIFETDKKYSWTPGRFSGSLLGAKAALTISDAQPEDEAEYYCLLSDVDGYLFGGGTQLTVLSGILEQKLISEEDL
modifications: scFv sequence, (GILEQKLISEEDL at end of sequence is derived from a vector)
Question: For B5, which “reduced affinity for MG-2p in solution as compared to surface display” value [9] is on record?
Answer: 265 fold

B6: HL2-TO1: fluorogen binding scFv, SEQ ID NO: 5 (protein)
scFv: QVQLQQGGAGLLKPSETLSLTCGVYGGSFSGYYWSWIRQSPGKGLEWIGEINHSGSANYNPSVKSRVTISVDTSKNQFSLQLSSVTAADTAVYYCARDRAVLTGEGWYFDLWGRGTLVTVSSGILGSGGGGSGGGGSGGGGSSYELTQPPSVSVSPGQTASITCSGDKLGDKYTCWYQQKPGQSPVLVLYEDTKRPSGIPERFSGSNSGNTATLTISRVEAGDEADYYCQLWDSSSDHYVFGSGTKLTVL
modifications: scFv sequence
Question: Which emission maxima [3] does the source give for B6 here?
Answer: 550 nm

Question: And the excitation maximum [3]?
Answer: 515 nm

Question: And the dissociation constants ([7]; yeast surface displayed FBP, TO1-2p, in words)?
Answer: high nanomolar range
